From US20250157661

System: Indicator molecule containing the cleavable sequence GPQGIFGQ with a terminal biotin group connected via a polyethylene glycol spacer/linker (intact, Examples 1-6)

Active MMP-9 (Alere San Diego), sequence (chain, as listed by the source): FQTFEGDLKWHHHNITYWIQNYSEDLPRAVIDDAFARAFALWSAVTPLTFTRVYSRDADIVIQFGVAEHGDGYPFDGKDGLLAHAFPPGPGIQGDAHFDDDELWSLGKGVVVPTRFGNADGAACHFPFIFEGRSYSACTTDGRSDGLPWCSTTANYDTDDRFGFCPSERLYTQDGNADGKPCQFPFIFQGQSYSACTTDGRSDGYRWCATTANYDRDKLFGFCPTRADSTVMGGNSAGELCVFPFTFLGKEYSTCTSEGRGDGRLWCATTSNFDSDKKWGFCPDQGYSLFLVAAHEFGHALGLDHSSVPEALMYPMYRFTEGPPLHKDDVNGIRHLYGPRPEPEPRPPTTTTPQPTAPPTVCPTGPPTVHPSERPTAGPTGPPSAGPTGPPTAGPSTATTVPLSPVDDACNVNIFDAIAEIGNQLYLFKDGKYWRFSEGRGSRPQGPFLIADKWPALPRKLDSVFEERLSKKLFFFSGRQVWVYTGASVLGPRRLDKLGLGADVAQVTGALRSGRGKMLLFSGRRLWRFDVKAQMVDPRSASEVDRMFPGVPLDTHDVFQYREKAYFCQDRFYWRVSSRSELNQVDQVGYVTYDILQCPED
MMP2 (Enzo), sequence (chain, as listed by the source): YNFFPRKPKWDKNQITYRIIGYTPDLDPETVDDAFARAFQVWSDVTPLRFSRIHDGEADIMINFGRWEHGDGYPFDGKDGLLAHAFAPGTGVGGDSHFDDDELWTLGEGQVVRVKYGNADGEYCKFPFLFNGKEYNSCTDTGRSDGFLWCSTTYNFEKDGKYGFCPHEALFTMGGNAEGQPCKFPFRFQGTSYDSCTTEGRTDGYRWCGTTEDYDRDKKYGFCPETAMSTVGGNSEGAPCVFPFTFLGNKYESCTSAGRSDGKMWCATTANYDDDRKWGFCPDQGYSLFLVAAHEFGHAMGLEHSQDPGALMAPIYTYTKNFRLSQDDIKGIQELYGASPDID
MMP8 (Enzo), sequence (chain, as listed by the source): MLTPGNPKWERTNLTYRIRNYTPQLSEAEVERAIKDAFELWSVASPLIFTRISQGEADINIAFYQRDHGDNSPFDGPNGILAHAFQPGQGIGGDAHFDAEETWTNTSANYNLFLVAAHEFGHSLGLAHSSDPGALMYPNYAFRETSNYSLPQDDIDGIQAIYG
MMP3 (Enzo), sequence (chain, as listed by the source): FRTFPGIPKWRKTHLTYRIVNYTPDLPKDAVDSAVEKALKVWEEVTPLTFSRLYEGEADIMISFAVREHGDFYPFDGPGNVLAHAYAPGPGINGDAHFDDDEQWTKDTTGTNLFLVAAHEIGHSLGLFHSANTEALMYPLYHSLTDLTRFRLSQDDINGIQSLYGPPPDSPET
MMP10 (Enzo), sequence (chain, as listed by the source): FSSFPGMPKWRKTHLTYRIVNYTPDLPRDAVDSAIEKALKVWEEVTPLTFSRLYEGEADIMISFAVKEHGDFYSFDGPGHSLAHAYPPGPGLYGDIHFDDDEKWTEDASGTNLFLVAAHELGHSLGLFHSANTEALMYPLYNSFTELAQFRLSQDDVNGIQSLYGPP
MMP9 (Enzo), sequence (chain, as listed by the source): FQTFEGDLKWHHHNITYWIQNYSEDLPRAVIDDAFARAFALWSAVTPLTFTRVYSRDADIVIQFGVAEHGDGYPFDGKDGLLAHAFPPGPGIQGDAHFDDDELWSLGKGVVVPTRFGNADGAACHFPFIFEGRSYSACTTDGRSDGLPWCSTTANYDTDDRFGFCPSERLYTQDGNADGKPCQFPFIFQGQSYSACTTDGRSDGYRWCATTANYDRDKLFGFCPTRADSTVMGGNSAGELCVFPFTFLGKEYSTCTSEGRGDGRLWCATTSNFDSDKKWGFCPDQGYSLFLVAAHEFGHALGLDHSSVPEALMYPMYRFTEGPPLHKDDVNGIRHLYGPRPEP

Active MMP-9 (Alere San Diego)
OD405 (ELISA, streptavidin plate, CF1522-AP) at 0.39 ng/ml MMP9: 0.14 OD405
OD405 (ELISA, streptavidin plate, CF1522-AP) at 0.78 ng/ml MMP9: 0.14 OD405
OD405 (ELISA, streptavidin plate, CF1522-AP) at 1.56 ng/ml MMP9: 0.14 OD405
OD405 (ELISA, streptavidin plate, CF1522-AP) at 3.13 ng/ml MMP9: 0.13 OD405
OD405 (ELISA, streptavidin plate, CF1522-AP) at 6.25 ng/ml MMP9: 0.17 OD405
OD405 (ELISA, streptavidin plate, CF1522-AP) at 12.50 ng/ml MMP9: 0.18 OD405
OD405 (ELISA, streptavidin plate, CF1522-AP) at 25.00 ng/ml MMP9: 0.27 OD405
OD405 (ELISA, streptavidin plate, CF1522-AP) at 50.00 ng/ml MMP9: 0.5 OD405
reader value (lateral flow, CF1522-gold at the polystreptavidin test line) at 0.9765625 ng/ml MMP9: 338 reader units
reader value (lateral flow, CF1522-gold at the polystreptavidin test line) at 1.953125 ng/ml MMP9: 343 reader units
reader value (lateral flow, CF1522-gold at the polystreptavidin test line) at 3.90625 ng/ml MMP9: 413 reader units
reader value (lateral flow, CF1522-gold at the polystreptavidin test line) at 7.8125 ng/ml MMP9: 524 reader units
reader value (lateral flow, CF1522-gold at the polystreptavidin test line) at 15.625 ng/ml MMP9: 882 reader units
reader value (lateral flow, CF1522-gold at the polystreptavidin test line) at 31.25 ng/ml MMP9: 2030 reader units
reader value (lateral flow, CF1522-gold at the polystreptavidin test line) at 62.5 ng/ml MMP9: 3830 reader units
reader value (lateral flow, CF1522-gold at the polystreptavidin test line) at 125 ng/ml MMP9: 5580 reader units
reader value (lateral flow, CF1522-gold at the polystreptavidin test line) at 250 ng/ml MMP9: 6220 reader units
reader value (lateral flow, CF1522-gold at the polystreptavidin test line) at 500 ng/ml MMP9: 6730 reader units
reader value (lateral flow, CF1522-gold at the polystreptavidin test line) at 1000 ng/ml MMP9: 6770 reader units

MMP2 (Enzo)
Reader value (lateral flow, CF1522-gold) with MMP at 0.5 ug/ml: 1610 reader units

MMP3 (Enzo)
Reader value (lateral flow, CF1522-gold) with MMP at 0.5 ug/ml: 336 reader units

MMP8 (Enzo)
Reader value (lateral flow, CF1522-gold) with MMP at 0.5 ug/ml: 1140 reader units

MMP9 (Enzo)
Reader value (lateral flow, CF1522-gold) with MMP at 0.5 ug/ml: 3840 reader units

MMP10 (Enzo)
Reader value (lateral flow, CF1522-gold) with MMP at 0.5 ug/ml: 444 reader units
